Target: T1, recombinant human insulin receptor (human, UniProt P06213-2 28-944, limits assumed)
T1 construct: also called rhIR; human IR
Test: direct ELISA, rhIR coated at 1 µg/ml, hybridoma supernatant, anti-mouse IgG-HRP detection
Experimental: Further characterizations of the 816C12 antibody were then performed using hybridoma supernatant such as rhIGF-1R or rmIGF-1R or rhIR ELISA. In all direct ELISAs, proteins of interest were immobilized (1 μg/ml) to the bottom of each well. After saturation, hybridoma supernatants were added to the wells. After a 1-hour incubation period and a washing step, a solution of goat anti-mouse IgG—HRP labelled polyclonal antibody was used for detection, prior to the addition of the TMB substrate. The reaction was stopped with a 1M […] solution before reading the OD with a spectrophotometer at a 450 nm wavelength.

T1 sequence (P06213 other isoform, or with tags, fused parts or gaps limits assumed): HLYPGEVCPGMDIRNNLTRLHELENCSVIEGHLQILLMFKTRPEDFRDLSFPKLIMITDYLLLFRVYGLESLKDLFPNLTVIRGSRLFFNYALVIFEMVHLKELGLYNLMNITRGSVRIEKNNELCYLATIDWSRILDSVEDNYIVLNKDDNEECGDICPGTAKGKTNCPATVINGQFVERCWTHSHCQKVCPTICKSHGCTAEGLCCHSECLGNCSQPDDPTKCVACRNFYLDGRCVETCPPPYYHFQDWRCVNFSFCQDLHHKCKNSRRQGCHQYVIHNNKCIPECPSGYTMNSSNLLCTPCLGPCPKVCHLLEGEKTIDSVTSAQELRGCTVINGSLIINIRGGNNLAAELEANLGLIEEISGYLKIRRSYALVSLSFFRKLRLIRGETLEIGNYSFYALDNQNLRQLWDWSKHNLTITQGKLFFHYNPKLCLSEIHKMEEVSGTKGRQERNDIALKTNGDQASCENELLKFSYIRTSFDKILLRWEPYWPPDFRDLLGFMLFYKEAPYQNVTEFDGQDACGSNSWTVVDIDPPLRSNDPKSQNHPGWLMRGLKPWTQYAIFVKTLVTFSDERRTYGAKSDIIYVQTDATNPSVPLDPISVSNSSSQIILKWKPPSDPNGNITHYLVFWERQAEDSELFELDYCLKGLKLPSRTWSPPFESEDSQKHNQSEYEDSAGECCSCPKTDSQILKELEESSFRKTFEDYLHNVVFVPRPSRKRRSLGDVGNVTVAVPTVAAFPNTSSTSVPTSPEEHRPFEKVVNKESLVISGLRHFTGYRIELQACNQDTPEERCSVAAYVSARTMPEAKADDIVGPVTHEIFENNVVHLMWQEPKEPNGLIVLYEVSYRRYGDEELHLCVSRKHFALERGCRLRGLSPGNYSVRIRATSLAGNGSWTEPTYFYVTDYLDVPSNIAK

B1: 816C12 anti-IGF-1R monoclonal antibody (antibody, V domains shown)
VH: EVQLQQSGPELVKPGASVKMSCKASGHTFTSYVLHWMKRKPGQGLEWIGYINPHNDVTKYNENFKGKATLTSDKYSSTVYMEVSSLTSEDSAVYYCVSTAYYGNGRYFDVWGAGTTVTVSS
VL: DIQMTQTTSSLSASLGDRVTISCRASQDINNYLNWYQQKPDGTVKLLIYYTSRLHSGVSSRFSGSGSGTDYSLTISNLEQEDIATYFCQQGNTLPWTFGGGTKLEIK
notes: Murine monoclonal antibody from a Balb/C hybridoma; It was used as hybridoma supernatant in the ELISAs and at 5 ug/ml in IHC; also called I-4894; antibody secreted by hybridoma CNCM I-4894
Question: Does B1 bind?
Answer: no binding (tested: 5 µg/ml)

From patent publication US20210018508A1 (PIERRE FABRE MEDICAMENT, published 2021)
